Reference: article PMC9221443, “Peptidomimetics Based on C-Terminus of Blm10 Stimulate Human 20S Proteasome Activity and Promote Degradation of Proteins” (Biomolecules, 2022)

Tests used:
Test in all cases: MST; NT-647-labelled protein kept constant (250 nM native and oxidized α-synuclein, 125 nM native enolase, 25 nM oxidized enolase), unlabelled h20S titrated in 16 dilutions from 1965 to 0.06 nM; 60 min (enolase) or 30 min (α-synuclein) at 22 °C; 20 mM Tris-HCl pH 7.2, 10% glycerol, 0.5 mM DTT, 0.5 mM NaN3, 0.125 mM EDTA, 100 mM NaCl; Hill fit, three independent experiments
[1] = target: oxidized human enolase 2 (human) (UniProt P09104)
[2] = target: oxidized α-synuclein (UniProt P37840)
[3] = target: α-synuclein (UniProt P37840)

human 20S proteasome (from UniProt P25786 4-241; P28066 8-241; P28072 35-239; Q99436 44-277; P28074 60-263) (complex)
EC50 [1]: 87.8 nM
EC50 [2]: 67.6 nM
EC50 [3]: 32.3 nM
